This assay has as its target T1, in vitro translated HA-tagged NEMO (UniProt Q9Y6K9 1-419).
T1 construct: Negative control in the pull-down; made in TNT reticulocyte lysate; also called HA-NEMO; not shown: HA tag
Briefly: GST pull-down of in vitro translated protein, anti-HA blot. The text has this:
FIGS. 1a-1d: binding of CARMA1 SH3 domain to E-Syt2. GST pull-down assays show direct interaction between E-Syt2 and SH3 domains. Schematic representation of CARMA1 (a) and E-Syt2 (b) mutant constructs. (c) upper panel: pull-down assays of the interactions between CARMA1 SH3 domain (GST-SH3c), Vav SH3 domain (GST-SH3v) or GST and in vitro translated HA-tagged E-Syt2, or NEMO in TNT® reticulocytes lysate systems. Ten percent of the input TNT lysates was also run on the PAGE and immunoblot with anti-HA to determine the relative binding capacity. […] Jurkat T cells were incubated with Raji B cells and coated with medium alone or with SEE. At 10 minutes, cells were fixed and E-SYT2 localized by immunofluorescence and confocal microscopy, using anti-A-SYT2 antibody, as described in the experimental procedure. The corresponding Nomarski images are shown on the bottom panels. Scale Bars represent 1 μm. (d) ESYT2 localized in microclusters Jurkat cells were settle onto glass coverslips coated either with anti-CD3, anti-CD28 or both and fixed 5 min of stimulation. The images of E-Syt2, PKCθ and TCT staining were taken by confocal microscopy.

T1 sequence (Q9Y6K9 whole entry): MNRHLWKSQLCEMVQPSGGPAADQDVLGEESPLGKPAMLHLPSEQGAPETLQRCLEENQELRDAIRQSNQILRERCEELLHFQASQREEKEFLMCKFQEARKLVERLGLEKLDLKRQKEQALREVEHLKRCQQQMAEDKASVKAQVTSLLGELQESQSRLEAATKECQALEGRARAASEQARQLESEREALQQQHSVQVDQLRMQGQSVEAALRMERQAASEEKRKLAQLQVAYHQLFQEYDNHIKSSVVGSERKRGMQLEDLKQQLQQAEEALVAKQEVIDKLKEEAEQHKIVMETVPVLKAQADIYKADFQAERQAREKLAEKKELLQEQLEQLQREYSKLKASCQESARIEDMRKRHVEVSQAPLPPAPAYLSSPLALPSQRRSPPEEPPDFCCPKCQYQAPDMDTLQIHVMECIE

B1: GST fused to the Vav SH3 domain (GST-SH3v) (other, UniProt P15498 782-845, looked up)
chain: KYFGTAKARYDFCARDRSELSLKEGDIIKILNKKGQQGWWRGEIYGRVGWFPANYVEEDYSEYC
notes: domain: SH3 (C-ter Vav); also called pGEX-4T-SH3 (C-ter Vav); not shown: glutathione S-transferase of vector pGEX-4T
With B1, the binding result is given as “no binding”.
